Columns and labels:
Experiment in all cases: fluorescence anisotropy; 10 mM MgCl2, 1 mM ATP; T4 DNA ligase reaction buffer: 50 mM Tris-HCl pH 7.5 (25°C), 1 mM ATP, 10 mM MgCl2; 750 pM-4 nM DNA; anisotropy temperature not stated
PBCV1-Nterm-T4NTD = PBCV1-Nterm-T4NTD (bacteriophage T4 (T4NTD) / Paramecium …, UniProt P00970 1-135+O41026:1-298, internal_change); conditions: protein: recombinant; tags: N-terminal His6; label: 3'-FAM on one strand; blunt
T4 DNA ligase = target: T1, T4 DNA ligase (bacteriophage T4, UniProt P00970 1-487); conditions: label: 3'-FAM on one strand; blunt
T1 sequence: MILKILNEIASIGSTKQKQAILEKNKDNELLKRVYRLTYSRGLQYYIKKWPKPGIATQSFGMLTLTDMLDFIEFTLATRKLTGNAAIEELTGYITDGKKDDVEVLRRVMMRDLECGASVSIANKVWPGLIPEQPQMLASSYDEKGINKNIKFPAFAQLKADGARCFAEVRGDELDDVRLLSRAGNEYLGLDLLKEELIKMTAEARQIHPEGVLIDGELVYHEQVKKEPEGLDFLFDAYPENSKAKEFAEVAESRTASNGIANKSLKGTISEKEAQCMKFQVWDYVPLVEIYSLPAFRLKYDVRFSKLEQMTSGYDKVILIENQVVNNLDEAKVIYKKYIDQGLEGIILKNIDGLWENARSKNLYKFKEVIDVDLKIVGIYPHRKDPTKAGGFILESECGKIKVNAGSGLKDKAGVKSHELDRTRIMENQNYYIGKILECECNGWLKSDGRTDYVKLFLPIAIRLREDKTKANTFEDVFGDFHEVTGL

hLig3 ZnF = target: T2, hLig3 ZnF (human, UniProt P49916 88-206); conditions: protein: recombinant; tags: His10; label: 3'-FAM on one strand; blunt
T2 sequence: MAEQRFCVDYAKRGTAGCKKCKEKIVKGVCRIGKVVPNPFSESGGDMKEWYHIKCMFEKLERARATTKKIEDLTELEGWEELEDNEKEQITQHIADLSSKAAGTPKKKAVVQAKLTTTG

Sso7d = target: T3, Sso7d (Sulfolobus solfataricus, UniProt P39476 2-64); conditions: protein: recombinant; tags: N-terminal His6; label: 3'-FAM on one strand; blunt
T3 sequence: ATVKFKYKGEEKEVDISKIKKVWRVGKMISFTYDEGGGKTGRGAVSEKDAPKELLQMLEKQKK

[1] = target: T4, hLig3 (human DNA ligase III beta) (human, UniProt P49916-2 88-949); conditions: protein: recombinant; tags: N-terminal His6; label: 3'-FAM on one strand; blunt
T4 sequence: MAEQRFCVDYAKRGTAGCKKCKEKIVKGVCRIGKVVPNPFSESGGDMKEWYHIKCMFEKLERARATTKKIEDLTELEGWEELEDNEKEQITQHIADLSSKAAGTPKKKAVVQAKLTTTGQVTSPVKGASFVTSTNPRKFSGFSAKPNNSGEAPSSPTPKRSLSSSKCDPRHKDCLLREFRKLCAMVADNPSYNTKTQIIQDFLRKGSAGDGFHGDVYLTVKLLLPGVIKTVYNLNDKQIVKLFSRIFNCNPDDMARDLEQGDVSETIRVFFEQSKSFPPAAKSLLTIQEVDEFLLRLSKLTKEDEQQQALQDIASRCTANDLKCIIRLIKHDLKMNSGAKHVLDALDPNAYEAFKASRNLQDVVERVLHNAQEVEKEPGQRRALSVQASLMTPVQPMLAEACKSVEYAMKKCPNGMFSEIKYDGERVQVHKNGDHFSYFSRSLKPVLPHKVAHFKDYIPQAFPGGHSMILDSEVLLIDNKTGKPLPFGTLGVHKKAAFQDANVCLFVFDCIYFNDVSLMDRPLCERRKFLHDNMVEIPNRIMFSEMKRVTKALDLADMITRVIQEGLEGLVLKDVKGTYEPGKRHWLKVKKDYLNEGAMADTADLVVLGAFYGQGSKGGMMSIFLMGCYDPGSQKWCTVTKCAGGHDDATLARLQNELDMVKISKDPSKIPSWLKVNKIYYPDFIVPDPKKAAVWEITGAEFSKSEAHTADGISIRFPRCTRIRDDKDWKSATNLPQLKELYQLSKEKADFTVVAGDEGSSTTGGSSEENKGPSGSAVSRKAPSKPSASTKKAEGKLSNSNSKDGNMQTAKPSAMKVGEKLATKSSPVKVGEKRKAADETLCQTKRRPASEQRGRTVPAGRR

T3 DNA ligase = target: T5, T3 DNA ligase (bacteriophage T3, UniProt P07717 1-346); conditions: label: 3'-FAM on one strand; blunt
T5 sequence: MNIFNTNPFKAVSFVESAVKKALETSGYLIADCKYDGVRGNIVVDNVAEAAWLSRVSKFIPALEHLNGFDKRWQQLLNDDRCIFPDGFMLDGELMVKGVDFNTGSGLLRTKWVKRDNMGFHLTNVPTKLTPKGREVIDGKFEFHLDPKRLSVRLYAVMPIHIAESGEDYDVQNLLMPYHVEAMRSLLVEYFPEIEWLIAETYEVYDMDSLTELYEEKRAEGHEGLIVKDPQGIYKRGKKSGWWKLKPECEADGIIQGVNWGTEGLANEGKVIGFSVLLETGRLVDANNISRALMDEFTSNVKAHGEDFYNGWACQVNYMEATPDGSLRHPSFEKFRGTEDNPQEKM

PBCV1 DNA ligase = target: T6, PBCV1 DNA ligase (Paramecium bursaria chlorella virus 1, UniProt O41026 1-298); conditions: protein: recombinant; label: 3'-FAM on one strand; blunt
T6 sequence: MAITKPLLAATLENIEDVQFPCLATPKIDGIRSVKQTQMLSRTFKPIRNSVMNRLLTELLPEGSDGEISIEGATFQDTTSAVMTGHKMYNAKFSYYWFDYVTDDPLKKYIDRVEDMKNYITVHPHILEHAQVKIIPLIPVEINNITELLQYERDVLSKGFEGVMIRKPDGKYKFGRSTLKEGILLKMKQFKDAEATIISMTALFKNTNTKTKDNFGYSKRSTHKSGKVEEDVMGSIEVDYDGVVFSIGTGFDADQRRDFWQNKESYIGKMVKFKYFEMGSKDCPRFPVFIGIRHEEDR

B1: Anisotropy 24mer dsDNA (dsDNA)
DNA 1: GATCGTCCTTGGTGATCATGCATC
DNA 2: GATGCATGATCACCAAGGACGATC
Kd (PBCV1-Nterm-T4NTD): 243 ± 39 nM | Kd (T4 DNA ligase): 1900 ± 100 nM | Kd (hLig3 ZnF): 21 ± 1 nM | Kd (Sso7d): 430 ± 60 nM | Kd [1]: 3.8 ± 0.2 nM | Kd (T3 DNA ligase): 6400 ± 400 nM | Kd (PBCV1 DNA ligase): 990 ± 80 nM

Source: PMC5746248, “Comparative analysis of the end-joining activity of several DNA ligases”
